Measured values reported in patent US20250263462A1 (US Dept. of Health and Human Services, published 2025).

Key:
Assay in all cases: cell-based or functional assay
[1] = biological target: HLA-A11 on COS7/A11 cells expressing the KRAS G12V minigene (23-mer SEQ ID NO: 120) (human, UniProt A*11:01)
[2] = biological target: HLA-A11 on COS7/A11 cells expressing the WT KRAS minigene (23-mer SEQ ID NO: 118) (human, UniProt A*11:01)
[3] = biological target: HLA-A11 on COS7/A11 cells expressing the KRAS G12D minigene (23-mer SEQ ID NO: 119) (human, UniProt A*11:01)
[4] = biological target: T1, WT KRAS 10-mer peptide (SEQ ID NO: 30) presented by HLA-A11 on pulsed cells (human, UniProt A*11:01)
[5] = biological target: T2, KRAS G12D 10-mer peptide … (SEQ ID NO: 2) presented by HLA-A11 on pulsed cells (human, UniProt A*11:01)
[6] = biological target: KRAS G12D 9-mer peptide KRAS8-16 … (SEQ ID NO: 34) presented by HLA-A11 on pulsed cells (human, UniProt A*11:01)
[7] = biological target: T1, WT KRAS 10-mer peptide (SEQ ID NO: 30) …; remark: listed apart in the source
[8] = biological target: T2, KRAS G12D 10-mer peptide … (SEQ ID NO: …); remark: listed apart in the source
[9] = biological target: KRAS G12V 9-mer peptide … (SEQ ID NO: 35) presented by HLA-A11 on pulsed cells (human, UniProt A*11:01)
[10] = biological target: KRAS G12V 10-mer peptide … (SEQ ID NO: 33) presented by HLA-A11 on pulsed cells (human, UniProt A*11:01)

B1: TRAV19*01/TRBV13-1*02 murine anti-KRAS G12V TCR (SEQ ID NOs: 145 and 146) (TCR, V domains shown)
V domain 1: GQQVKQSSPSLTVQEGGILILNCDYENDMFDYFAWYKKYPDNSPTLLISVRSNVDKREDGRFTVFLNKSGKHFSLHITASQPEDTAVYLCAAGDSGGSNYKLTFGKGTLLTVTP
V domain 2: EAAVTQSPRNKVTVTGGNVTLSCRQTNSHNYMYWYRQDTGHGLRLIHYSYGAGNLQIGDVPDGYKATRTTQEDFFLLLELASPSQTSLYFCASASWGGYAEQFFGPGTRLTVLE
- IFN-γ, PBL + Cos7/A11 minigene transfectant [1]: 18100 pg/mL
- IFN-γ, PBL + Cos7/A11 minigene transfectant [2]: 92 pg/mL
- IFN-γ, PBL + Cos7/A11 minigene transfectant [3]: 81 pg/mL
- IFN-γ, PBL + pulsed Cos7/A11 [4]: 90 pg/mL
- IFN-γ, PBL + pulsed Cos7/A11 [5]: 94 pg/mL
- IFN-γ, PBL + Cos7/A11 pulsed at 10^-6 (10^× µM) [6]: 63 pg/mL
- IFN-γ, PBL + Cos7/A11 pulsed at 10^-7 (10^× µM) [6]: 57 pg/mL
- IFN-γ, PBL + Cos7/A11 pulsed at 10^-8 (10^× µM) [6]: 48 pg/mL
- IFN-γ, PBL + Cos7/A11 pulsed at 10^-9 (10^× µM) [6]: 54 pg/mL
- IFN-γ, PBL + Cos7/A11 pulsed at 10^-10 (10^× µM) [6]: 62 pg/mL
- IFN-γ, PBL + Cos7/A11 pulsed at 10^-11 (10^× µM) [6]: 52 pg/mL
- IFN-γ, PBL + Cos7/A11 pulsed at 10^-12 (10^× µM) [6]: 57 pg/mL
- IFN-γ, PBL + Cos7/A11 pulsed at 10^-13 (10^× µM) [6]: 70 pg/mL
- IFN-γ, PBL + Cos7/A11 pulsed at 10^-6 (10^× µM) [7]: 57 pg/mL
- IFN-γ, PBL + Cos7/A11 pulsed at 10^-7 (10^× µM) [7]: 56 pg/mL
- IFN-γ, PBL + Cos7/A11 pulsed at 10^-8 (10^× µM) [7]: 57 pg/mL
- IFN-γ, PBL + Cos7/A11 pulsed at 10^-9 (10^× µM) [7]: 49 pg/mL
- IFN-γ, PBL + Cos7/A11 pulsed at 10^-10 (10^× µM) [7]: 57 pg/mL
- IFN-γ, PBL + Cos7/A11 pulsed at 10^-11 (10^× µM) [7]: 65 pg/mL
- IFN-γ, PBL + Cos7/A11 pulsed at 10^-12 (10^× µM) [7]: 67 pg/mL
- IFN-γ, PBL + Cos7/A11 pulsed at 10^-13 (10^× µM) [7]: 70 pg/mL
- IFN-γ, PBL + Cos7/A11 pulsed at 10^-6 (10^× µM) [8]: 61 pg/mL
- IFN-γ, PBL + Cos7/A11 pulsed at 10^-7 (10^× µM) [8]: 50 pg/mL
- IFN-γ, PBL + Cos7/A11 pulsed at 10^-8 (10^× µM) [8]: 49 pg/mL
- IFN-γ, PBL + Cos7/A11 pulsed at 10^-9 (10^× µM) [8]: 59 pg/mL
- IFN-γ, PBL + Cos7/A11 pulsed at 10^-10 (10^× µM) [8]: 52 pg/mL
- IFN-γ, PBL + Cos7/A11 pulsed at 10^-11 (10^× µM) [8]: 64 pg/mL
- IFN-γ, PBL + Cos7/A11 pulsed at 10^-12 (10^× µM) [8]: 62 pg/mL
- IFN-γ, PBL + Cos7/A11 pulsed at 10^-13 (10^× µM) [8]: 63 pg/mL
- IFN-γ, PBL + Cos7/A11 pulsed at 10^-6 (10^× µM) [9]: 112 pg/mL
- IFN-γ, PBL + Cos7/A11 pulsed at 10^-7 (10^× µM) [9]: 70 pg/mL
- IFN-γ, PBL + Cos7/A11 pulsed at 10^-8 (10^× µM) [9]: 52 pg/mL
- IFN-γ, PBL + Cos7/A11 pulsed at 10^-9 (10^× µM) [9]: 55 pg/mL
- IFN-γ, PBL + Cos7/A11 pulsed at 10^-10 (10^× µM) [9]: 64 pg/mL
- IFN-γ, PBL + Cos7/A11 pulsed at 10^-11 (10^× µM) [9]: 62 pg/mL
- IFN-γ, PBL + Cos7/A11 pulsed at 10^-12 (10^× µM) [9]: 66 pg/mL
- IFN-γ, PBL + Cos7/A11 pulsed at 10^-13 (10^× µM) [9]: 64 pg/mL

B2: TRAV19*01 + TRBV4*01 TCR chain pair (TCR, V domains shown)
V domain 1: B1 V domain 1
V domain 2: ETAVFQTPNYHVTQVGNEVSFNCKQTLGHDTMYWYKQDSKKLLKIMFSYNNKQLIVNETVPRRFSPQSSDKAHLNLRIKSVEPEDSAVYLCASSRDWGPAEQFFGPGTRLTVLE
- IFN-γ, PBL + Cos7/A11 minigene transfectant [1]: 30 pg/mL
- IFN-γ, PBL + Cos7/A11 minigene transfectant [2]: 32 pg/mL
- IFN-γ, PBL + Cos7/A11 minigene transfectant [3]: 27 pg/mL
- IFN-γ, PBL + pulsed Cos7/A11 [10]: 27 pg/mL
- IFN-γ, PBL + pulsed Cos7/A11 [4]: 30 pg/mL
- IFN-γ, PBL + pulsed Cos7/A11 [5]: 30 pg/mL
